# In PMC5606208 (Nature, 2017):
# What was measured:
# [1] = molecular target: the molecule itself; test: SEC-MALS
# [2] = molecular target: the molecule itself; test: AUC
protein,measurement,setting,value
"nPhos-HP1α (HP1α S92A, S95A, S97A co-expressed with CKII, phosphorylated only in the N-terminal extension) (natural protein, human, UniProt P45973 1-191, looked up, phosphorylated at Ser11, Ser12, Ser13, Ser14 (NTE); 8 phosphates per dimer by native MS) MGKKTKRTADSSSSEDEEEYVVEKVLDRRVVKGQVEYLLKWKGFSEEHNTWEPEKNLDCPELISEFMKKYKKMKEGENNKPREKSESNKRKANFANAADDIKSKKKREQSNDIARGFERGLEPEKIIGATDSCGDLMFLMKWKDTDEADLVLAKEANVKCPQIVIAFYEERLTWHAYPEDAENKEKETAKS",stoichiometry N,[1],2
"PhosNH-α/βchimera (N-terminus and Hinge from HP1α with the Chromodomain, Chromoshadow domain and CTE from HP1β, phosphorylated) (other, human, phosphorylated NTE (fully phosphorylated, sites not given)) GKKTKRTADSSSSEDEEEYVVEKVLDRRVVKGKVEYLLKWKGFSDEDNTWEPEENLDCPDLISEFMKKYKKMKEGENNKPREKSESNKRKSNFSNSADDIKSKKKREQSNDIARGFARGLEPERIIGATDSSGELMFLMKWKNSDEADLVPAKEANVKCPQVVISFYEERLTWHSYPSEDDDKKDDKN",binding result,[2],binds
